Assay results reported in the supplement of paper PMC9170038.

Test system: MS2 coat protein
Assay: apparent KD of MS2 coat protein; designed switch direction (-1 OFF switch, 1 ON switch): -1; higher = weaker reporter binding
Method in brief: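 An oligonucleotide input, 200 uM small-molecule ligand, or no input was present during titration of SNAP-549-labelled MS2 coat protein, which was doubled from 0.7 or 1.5 nM to 3 µM. Designed RNA switches had been transcribed on Illumina chips by stalled E. coli RNA polymerase. Apparent KD per design is the median over clusters of curves fitted to normalised cluster fluorescence.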

[1] = input ligand: microRNA oligo, concentration not stated
[2] = Eterna round: R95, input ligand: FMN 200 uM
[3] = Eterna round: R95, input ligand: microRNA oligo, concentration not stated
[4] = Eterna round: R95, input ligand: none

Sequence | apparent KD of MS2 coat protein (input ligand: FMN 200 uM) | apparent KD of MS2 coat protein (input ligand: none) | apparent KD of MS2 coat protein [1] | apparent KD of MS2 coat protein [2] | apparent KD of MS2 coat protein [3] | apparent KD of MS2 coat protein [4]
AGAGAGUCAGGAUAUGACGAAGAGAACAUGAGGAUCACCCAUGUAGCUUCGUAAUCAUCGUCAGAAGGGACGAACU [JR_Ex5_Sub090] (Eterna round: R97, puzzle: Exclusion 5) | 0.0147 µM | 0.0148 µM | – | – | – | –
AGAGUGCUGCGAGGAUAUACAUGAGGAUCACCCAUGUAAAUGUGUGAGGCUUUGCCUCACACAAUGUAGAAGGCGCAGUACUCA [Mat - Exclusion NG 2 - Mod of JL - D2] (Eterna round: R96, puzzle: Exclusion NG 2) | 0.019 µM | 0.0144 µM | 0.0107 µM | – | – | –
AGAGUGCUGCGAGGAUAUACAUGAGGAUCACCCAUGUGGUCCUGUGAGGCAAAGCCUCACAGGAUGUAGAAGGCGCAGUACUCA [Mat - Exclusion NG 2 - Mod of JL - D46] (Eterna round: R96, puzzle: Exclusion NG 2) | 0.057 µM | 0.0199 µM | 0.0142 µM | – | – | –
AGAGUGGUGCGAGGAUAUACAUGAGGAUCACCCAUGUAAACGUGUGAGGCAAAGCCUCACACGAUGUAGAAGGCGCACUACUCA [Mat - Exclusion NG 2 - Mod of JL - D15] (Eterna round: R96, puzzle: Exclusion NG 2) | 0.0173 µM | 0.0158 µM | 0.0099 µM | – | – | –
AGAUAACAUGAGGAUCACCCAUGUGAGGAUAUUUACCCAAGAGCUUCGGCUCUCAGGUGAAGAAGGCACAUUGA [EX1 #58] (Eterna round: R97, puzzle: Exclusion 1) | 0.316 µM | 0.0864 µM | – | – | – | –
AGAUCGUCAGGAUAUACAUGAGGAUCACCCAUGUGUAGUCCAAAUUUGACUACAACAUGUAGAAGGGACGAUCG [Exclusion 3 (MOD2 of #1 Marzena11)] (Eterna round: R97, puzzle: Exclusion 3) | 0.209 µM | 0.044 µM | – | – | – | –
AGAUCUAGGACAGGAUAUACUGAUGGCUUCAUCGAAGAUGAAGCCAUCACAUGAGGAUCACCCAUGUAGAAGGGUCCUAGAUCA [Omei Exc(NG) 2Av8] (Eterna round: R96, puzzle: Exclusion NG 2) | – | – | 0.00955 µM | – | – | –
AGAUCUAGGACAGGAUAUAUAGAUGGCUUCAUCGAAGAUGAAGCCAUCACAUGAGGAUCACCCAUGUAGAAGGGUCCUAGAUCA [Omei Exc(NG) 2Av6] (Eterna round: R96, puzzle: Exclusion NG 2) | 0.0109 µM | 0.0103 µM | 0.00874 µM | – | – | –
AGAUGGCGAGGAUAUACAUGAGGAUCACCCAUGUGAGAAGAUAAAGUGAGGAAGAAAAGUAGAAGGCGCUGUCA [Mat - Exclusion 3 - Mod of Salish D23] (puzzle: Exclusion 3) | – | – | – | 0.0683 µM | 0.0449 µM | 0.0451 µM
AGAUGGCGAGGAUAUACAUGAGGAUCACCCAUGUGAGAUAAAUAAGUGAGGAAGAAAAGUAGAAGGCGCUGUCA [Mat - Exclusion 3 - Mod of Salish D14] (puzzle: Exclusion 3) | – | – | – | – | 0.0743 µM | –
AGAUGUAGAUACCGAUCCUACAUGAGGAUCACCCAUGUAGCUAGACGUGCUCGCGUAGCUCGUCAGACUACCAGUAG [salish99_TOv1_r3_087] (puzzle: Sensor v3, turn-off variant 1) | – | – | – | 0.242 µM | 0.156 µM | 0.267 µM
AGAUGUUAAGAGGAUAUCAGCCAAAACCGGCAGUGAGAAGGCUUGACAUGAGGAUCACCCAUGUUUUGCGGUAA [Islalaus] (Eterna round: R97, puzzle: Exclusion 6) | 0.397 µM | 0.0386 µM | – | – | – | –
AGCAAGUUAAGGUUGAUGCACAUGAGGAUCACCCAUGUUCGUCUUACAUGGAAAGUGGACGCGUUUAUGGAAAGGAG [Eternabot (L2) Solution 36] (Eterna round: R97, puzzle: Sensor, turn-off variant 1) | 0.0282 µM | 0.0282 µM | – | – | – | –
AGCAGACGAGGAUAUAGAUUUAGAUACAUGAGGAUCACCCAUGUAUACAUGUAUUUAGAUUUAGAAGGCGUCUGCU [E5/14-A1] (Eterna round: R97, puzzle: Exclusion 5) | 1.25 µM | 1.34 µM | – | – | – | –
AGCAUGCUAGGAUAUACGGGACAUUAGGGUUCGUCGUAUGGACAUGAGGAUCACCCAUGUAGAAGGAGCGUGCA [Mat - Exclusion 2 - Mod of Hyphema - D93] (puzzle: Exclusion 2) | – | – | – | – | 0.0199 µM | –
AGCCACAGAGGAUAUACAUACAUCCAGUAGUUAAGAAUAUUACAUGAGGAUCACCCAUGUAGAAGGCUGUGGCA [Omei Ex2 BD B7] (Eterna round: R97, puzzle: Exclusion 2) | 0.352 µM | 0.0354 µM | – | – | – | –
AGCCUGUAAGUAGGAUAUAUGAUCAGGAAUGAAAUAGAAGGGCUUAGUGGACAUGAGGAUCACCCAUGUCAAUGGGUUCAUGCA [Edria] (Eterna round: R96, puzzle: Exclusion NG 1) | 0.015 µM | 0.0225 µM | 0.016 µM | – | – | –
AGCGAGGUAGGAUAUACAUGAGGAUCACCCAUGUGCUUGUAUGGCGUGGAACAUCGUAGUAGAAGGGCCGCGCC [EX3 #76] (Eterna round: R97, puzzle: Exclusion 3) | 0.0219 µM | 0.0209 µM | – | – | – | –
AGCUAGAUAGGAUAUGCCCGGGAUAACAUGAGGAUCACCCAUGUGACCGAUUCAUGUCCUGCAGAAGGGUUUGGGA [Mod of ViennaUCT 7 - Jieux - Exclusion 5] (Eterna round: R97, puzzle: Exclusion 5) | 0.0151 µM | 0.0127 µM | – | – | – | –
AGCUAGUCAGGAUAUUCUAAAUAUUACAUGAGGAUCACCCAUGUGAAUGGACAAGGGUGUGAAGAAGGGACUAGCG [Omei Ex5 A12] (Eterna round: R97, puzzle: Exclusion 5) | 0.262 µM | 0.959 µM | – | – | – | –
AGCUAGUCAGGAUAUUCUAUUAAUUACAUGAGGAUCACCCAUGUGAAUGGACGAGGGUGUGAAGAAGGGACUAGCG [Omei Ex5 A17] (Eterna round: R97, puzzle: Exclusion 5) | 0.0944 µM | 0.226 µM | – | – | – | –
AGCUGUGGCCGAGGAUAUACAUGAGGAUCACCCAUGUUACAUAAUUAGGCCUGGUAACAGGCUCCGUAGAAGGCGGUCUCAGCA [Eli eng2 - 005] (Eterna round: R96, puzzle: Exclusion NG 2) | 0.013 µM | 0.0153 µM | 0.0114 µM | – | – | –
AGCUGUGGCCGAGGAUAUCUAACAAUCCAAACCGAAAUAUAAUCGGACAUGAGGAUCACCCAUGUAGAGAAGGCGGUCUCAGCA [Eli eng2 - 075] (Eterna round: R96, puzzle: Exclusion NG 2) | – | – | 0.0327 µM | – | – | –
AGCUGUGGCCGAGGAUAUCUAAUAUCUCAAACCGAAAUAUAAUCGGACAUGAGGAUCACCCAUGUAGAGAAGGCGGUCUCAGCA [Eli eng2 - 064] (Eterna round: R96, puzzle: Exclusion NG 2) | – | – | 0.0236 µM | – | – | –
AGCUGUGGCCGAGGAUAUCUAUCCAAAAUAACCGAAAUAUAAUCGGACAUGAGGAUCACCCAUGUAGAGAAGGCGGUCUCAGCA [Eli eng2 - 087] (Eterna round: R96, puzzle: Exclusion NG 2) | – | – | 0.0186 µM | – | – | –
AGGAAGCAAGGAUAUACGAGGAGAAGGUGGAGAUUUAAAGGACAUGAGGAUCACCCAUGUAGAAGGUGCGAGAA [JR_Exclu2_Sub046] (puzzle: Exclusion 2) | – | – | – | 0.0796 µM | 0.0443 µM | 0.0504 µM
AGGCGCUCUGUUAGGAUAUUUGCUGACUACUAGGCGGAGAAGGAACAUGAGGAUCACCCAUGUAUACGAUCCGC [BmEX4 C.16] (Eterna round: R97, puzzle: Brourd's mod of Exclusion 4) | 0.0137 µM | 0.0121 µM | – | – | – | –
AGGGAACGAGGAUAUCGAUGGUGGAACAUGAGGAUCACCCAUGUAUGAGAUAGAGUAGGGCGAGAAGGCGUUAAGA [JR_E5_Sub051] (puzzle: Exclusion 5) | – | – | – | 0.0476 µM | 0.0556 µM | 0.0849 µM
AGGGAAGAGUGAGGAUAUGGAAAUUUGGUGAGAACAUGAGGAUCACCCAUGUGGAAACAAGAAAAUUAGAAGGUAUAGGGAGGG [AK ExNG2-1.2] (Eterna round: R96, puzzle: Exclusion NG 2) | 0.048 µM | 0.0613 µM | 0.0453 µM | – | – | –
AGGGACUAAGGAUAUACUUAGGAGAUAAACGACUGGUGAACACUUGAGGAUCACCCAAGUAGAAGGUAGUCAAA [Enonsoor] (Eterna round: R97, puzzle: Exclusion 2) | 0.135 µM | 0.0304 µM | – | – | – | –
